Data published in patent US8431396B2, “Anti-angiogenic peptides” (The Cleveland Clinic Foundation, priority 2003, dated 2013).

B2: recombinant human TIMP3 (tissue inhibitor of metalloproteinases-3) (other)
chain: CTCSPSHPQDAFCNSDIVIRAKVVGKKLVKEGPFGTLVYTIKQMKMYRGFTKMPHVQYIHTEASESLCGLKLEVNKYQYLLTGRVYDGKMYTGLCNFVERWDQLTLSQRKGLNYRYHLGCNCKIKSCYYLPCFVTSKNECLWTDMLSNFGYPGYQSKHYACIRQKGGYCSWYRGWAPPDKSIINATDP
notes: Radio-iodinated in some assays; also called rTIMP3; recombinant TIMP3

Tests used:
KDR = target: T1, KDR (Homo sapiens, UniProt P35968); experiment: [125I]VEGF binding to the surface of PAE-KDR cells; conditions: same conditions as TIMP3
T1 construct: To determine whether these receptor isoforms represent full-length VEGFR-2; expressed in transfected cells; host or cells: porcine aortic endothelial (PAE) cells
T1 sequence (P35968 20-1356): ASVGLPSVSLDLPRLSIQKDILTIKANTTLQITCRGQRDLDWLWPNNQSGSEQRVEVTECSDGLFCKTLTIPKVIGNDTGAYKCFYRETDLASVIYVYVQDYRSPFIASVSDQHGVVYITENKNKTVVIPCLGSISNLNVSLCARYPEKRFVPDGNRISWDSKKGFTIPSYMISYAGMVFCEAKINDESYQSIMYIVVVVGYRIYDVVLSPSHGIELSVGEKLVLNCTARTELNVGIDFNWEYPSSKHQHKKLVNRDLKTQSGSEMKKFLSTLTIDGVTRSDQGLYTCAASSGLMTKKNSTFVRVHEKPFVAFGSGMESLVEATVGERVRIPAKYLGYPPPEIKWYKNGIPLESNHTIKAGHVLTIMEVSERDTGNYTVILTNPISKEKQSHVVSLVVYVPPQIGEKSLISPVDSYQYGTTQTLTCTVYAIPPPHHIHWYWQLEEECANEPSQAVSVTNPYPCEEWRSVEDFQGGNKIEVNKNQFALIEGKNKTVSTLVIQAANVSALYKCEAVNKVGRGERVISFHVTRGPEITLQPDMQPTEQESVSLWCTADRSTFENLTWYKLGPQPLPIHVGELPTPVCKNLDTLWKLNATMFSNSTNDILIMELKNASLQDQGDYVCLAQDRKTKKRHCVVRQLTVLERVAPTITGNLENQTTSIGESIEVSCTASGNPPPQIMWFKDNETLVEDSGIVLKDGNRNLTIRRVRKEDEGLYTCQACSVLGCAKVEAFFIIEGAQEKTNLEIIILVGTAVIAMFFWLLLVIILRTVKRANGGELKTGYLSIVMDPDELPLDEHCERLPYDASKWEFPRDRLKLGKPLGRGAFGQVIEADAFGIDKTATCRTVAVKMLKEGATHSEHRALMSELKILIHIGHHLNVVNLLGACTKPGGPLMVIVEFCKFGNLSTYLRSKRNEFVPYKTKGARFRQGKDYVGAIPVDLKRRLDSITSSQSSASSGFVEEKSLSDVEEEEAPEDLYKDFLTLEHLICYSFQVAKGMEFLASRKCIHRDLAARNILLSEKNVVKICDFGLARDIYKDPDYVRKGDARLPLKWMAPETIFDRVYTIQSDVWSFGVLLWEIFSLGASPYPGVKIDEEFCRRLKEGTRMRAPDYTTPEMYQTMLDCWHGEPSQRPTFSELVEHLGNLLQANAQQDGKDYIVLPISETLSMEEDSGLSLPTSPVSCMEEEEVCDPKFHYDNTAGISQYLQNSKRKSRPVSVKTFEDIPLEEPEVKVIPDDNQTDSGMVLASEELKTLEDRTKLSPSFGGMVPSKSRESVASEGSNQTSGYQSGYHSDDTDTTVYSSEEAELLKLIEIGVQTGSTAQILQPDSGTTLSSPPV
Experimental: Radioligand binding is expressed as percent binding and is the mean±s.e.m. of triplicate samples. […] All values are expressed as mean±s.e.m. of triplicate samples. […] Binding is expressed as mean±s.e.m.
Data were analyzed by Scatchard plot analyses.

KDR (VEGFR2) = KDR (VEGFR2) (Homo sapiens, UniProt P35968); experiment: ELISA of sKDR binding to VEGF-coated plates
Chain of KDR (VEGFR2) (P35968 20-764 limits assumed): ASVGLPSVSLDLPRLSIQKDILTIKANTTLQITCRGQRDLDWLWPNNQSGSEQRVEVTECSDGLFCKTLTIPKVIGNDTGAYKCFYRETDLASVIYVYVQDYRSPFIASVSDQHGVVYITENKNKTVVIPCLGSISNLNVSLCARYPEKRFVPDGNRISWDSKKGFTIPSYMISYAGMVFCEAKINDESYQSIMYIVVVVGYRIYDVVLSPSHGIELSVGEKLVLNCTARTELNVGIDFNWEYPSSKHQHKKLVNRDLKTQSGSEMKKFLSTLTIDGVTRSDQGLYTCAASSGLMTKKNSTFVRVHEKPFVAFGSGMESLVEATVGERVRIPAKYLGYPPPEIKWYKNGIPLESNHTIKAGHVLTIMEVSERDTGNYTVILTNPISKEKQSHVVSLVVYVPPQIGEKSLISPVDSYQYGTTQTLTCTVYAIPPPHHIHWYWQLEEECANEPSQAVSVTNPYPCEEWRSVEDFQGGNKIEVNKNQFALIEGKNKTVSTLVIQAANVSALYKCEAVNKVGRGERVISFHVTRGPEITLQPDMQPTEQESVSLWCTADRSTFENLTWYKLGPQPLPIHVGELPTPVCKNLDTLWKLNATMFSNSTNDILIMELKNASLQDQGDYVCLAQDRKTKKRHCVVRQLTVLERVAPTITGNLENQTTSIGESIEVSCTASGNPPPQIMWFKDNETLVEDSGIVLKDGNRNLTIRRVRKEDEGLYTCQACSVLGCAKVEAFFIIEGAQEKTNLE
Experimental: In the assay, 96 well immunoplates were coated with VEG (80 ng/ml) as per standard procedures.

[1] = test system: Choroidal Neovascularization (CNV); experiment: Laser-induced choroidal neovascularization (CNV) mouse model of AMD; assay type: in vivo, C57BL6 mice; conditions: single intravitreal injection on day 3; examined 14 days after laser
Experimental: We next tested the ability of intravitreal TIMP-3 tail and loop 6 peptide to inhibit Choroidal Neovascularization (CNV), a mouse model of age-related macular degeneration (AMD). C57BL6 mice (n=5) in each each group were lasered to induce CNV. On day 3 intravitreal injections [single dose] of control N terminal peptide (116) or TIMP-3 peptides (Tail peptide (SEQ ID NO: 13), Loop 6 (SEQ ID NO: 12), and Loop 5 (SEQ ID NO: 11) were administered. Animals were sacrificed at 14 days following laser and whole mount retinas were examined for evidence of CNV following injection of fluorescein dextran marker.

[2] = test system: chick embryo chorioallantoic membrane (CAM); experiment: Chick embryo chorioallantoic membrane (CAM) assay of VEGF-mediated angiogenesis; assay type: in vivo, chicken
Description: The CAM assay was done as described with slight modifications. Fertilized 3-day-old white Leghorn eggs (Sunnyside, Beaver Dam, Wis.) were cracked and embryos with the yolk intact were placed in glass-bottomed Petri dishes. […] Angiogenesis was reported as the angiogenic index (mean number of tertiary branchpoints from experimental conditions minus the mean number of branchpoints from buffer controls with no angiogenic stimulator).

PAE-KDR cells = experiment: Endothelial cell migration toward VEGF (modified Boyden chamber); assay type: cell-based, porcine; conditions: added exogenously; VEGF165 10 ng/ml
Experimental: (B) Comparison of the effects of rTIMP3, rTIMP1 and BB3103 on VEGF165-induced migration of PAE-KDR cells. […] In all migration experiments, migrating cell number is expressed as mean±s.e.m. of quadruplicate samples. All experiments were done in triplicate. Open symbols, KDR-vector; closed symbols, KDR-TIMP3.*, P<0.01; **, P<0.05.
(§1) A modified Boyden chamber assay for migration and proliferation assays were carried out as described.

VEGF = target: T2, VEGF (Homo sapiens, UniProt P15692); experiment: Solid-phase direct binding of [125I]VEGF to wells coated with TIMPs
T2 construct: purchased Genentech (gift, not bought)
T2 sequence (P15692 27-191 isoform P15692-4): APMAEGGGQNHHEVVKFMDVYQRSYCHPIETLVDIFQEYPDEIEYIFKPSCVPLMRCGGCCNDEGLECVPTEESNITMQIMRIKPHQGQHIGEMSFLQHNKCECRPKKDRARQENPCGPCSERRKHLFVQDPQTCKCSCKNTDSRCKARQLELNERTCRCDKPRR

PAEKDR cells [3] = experiment: VEGF-stimulated migration (modified Boyden chamber) of transfected PAEKDR cells; assay type: cell-based, porcine; conditions: mock cells
Experimental: A modified Boyden chamber assay was carried out as described previously 34. Briefly, 8.0 μm pore PVPF polycarbonate membranes were pre-coated with 100 μg/ml collagen type I in 0.2 N acetic acid (Cohesion technologies, INC. Pala Alto, Calif.). […] Chamber was then incubated for 4 hrs at 37° C. in a 5% CO2 humidified incubator. Cells remaining on the top of the filter were removed. Cells on the bottom surface of the filter were fixed, stained and mounted. The number of migrating cells per well was counted microscopically.

PAEKDR cells [4] = experiment: VEGF-stimulated proliferation ([3H]thymidine) of transfected PAEKDR cells; assay type: cell-based, porcine; conditions: mock cells
Experimental: Cells were seeded at a density of 5000 cells/well in 24 well culture plates and cultured for 24 h in growth medium. […] High molecular weight DNA was precipitated using 5% trichloroacetic acid at 4° C. for 30 min After two washes with ice-cold H2O, 3H radioactivity was solubilized in 1 N NaOH for 20 min at room temperature, acidified by addition of 2 N HCl, and measured using a liquid scintillation counter. Each sample was assayed in triplicate and the assays were repeated at least twice.

endothelial cells = experiment: Competitive displacement of [125I]TIMP3 from the surface of endothelial cells; assay type: binding; conditions: unlabeled VEGF 2 μg/ml, TIMP3 10 μg/ml
Experimental: Immunoprecipitation of cell lysates with antibodies specific for TIMP3 was followed by immunoblotting with antibodies specific for KDR (top). As a control for KDR receptor, cell lysates were immunoprecipitated with anti-bodies specific for KDR and probed with antibodies specific for KDR Immunoprecipitation with antibodies specific for KDR and immunoblotting with antibodies specific for TIMP3 (bottom) were carried out on PAE-KDR cells exposed to recombinant TIMP3 or PAE-KDR-vector and PAE-KDR cells overexpressing TIMP3, to confirm the interaction. […] Competition with unlabeled TIMP3 was carried out to ensure specificity. […] (E) In vivo interaction of KDR and TIMP3 in human placenta. Immunoprecipitation using antibodies specific TIMP3 (top) and KDR (bottom) was followed by immunoblotting with antibodies specific for KDR (top) and TIMP3 (bottom).

VEGFR1 (FLT-1) = VEGFR1 (FLT-1) (Homo sapiens, UniProt P17948); conditions: read-out: Kd of VEGF binding to VEGFR1; cited from earlier work
Chain of VEGFR1 (FLT-1) (P17948 27-1338, species assumed): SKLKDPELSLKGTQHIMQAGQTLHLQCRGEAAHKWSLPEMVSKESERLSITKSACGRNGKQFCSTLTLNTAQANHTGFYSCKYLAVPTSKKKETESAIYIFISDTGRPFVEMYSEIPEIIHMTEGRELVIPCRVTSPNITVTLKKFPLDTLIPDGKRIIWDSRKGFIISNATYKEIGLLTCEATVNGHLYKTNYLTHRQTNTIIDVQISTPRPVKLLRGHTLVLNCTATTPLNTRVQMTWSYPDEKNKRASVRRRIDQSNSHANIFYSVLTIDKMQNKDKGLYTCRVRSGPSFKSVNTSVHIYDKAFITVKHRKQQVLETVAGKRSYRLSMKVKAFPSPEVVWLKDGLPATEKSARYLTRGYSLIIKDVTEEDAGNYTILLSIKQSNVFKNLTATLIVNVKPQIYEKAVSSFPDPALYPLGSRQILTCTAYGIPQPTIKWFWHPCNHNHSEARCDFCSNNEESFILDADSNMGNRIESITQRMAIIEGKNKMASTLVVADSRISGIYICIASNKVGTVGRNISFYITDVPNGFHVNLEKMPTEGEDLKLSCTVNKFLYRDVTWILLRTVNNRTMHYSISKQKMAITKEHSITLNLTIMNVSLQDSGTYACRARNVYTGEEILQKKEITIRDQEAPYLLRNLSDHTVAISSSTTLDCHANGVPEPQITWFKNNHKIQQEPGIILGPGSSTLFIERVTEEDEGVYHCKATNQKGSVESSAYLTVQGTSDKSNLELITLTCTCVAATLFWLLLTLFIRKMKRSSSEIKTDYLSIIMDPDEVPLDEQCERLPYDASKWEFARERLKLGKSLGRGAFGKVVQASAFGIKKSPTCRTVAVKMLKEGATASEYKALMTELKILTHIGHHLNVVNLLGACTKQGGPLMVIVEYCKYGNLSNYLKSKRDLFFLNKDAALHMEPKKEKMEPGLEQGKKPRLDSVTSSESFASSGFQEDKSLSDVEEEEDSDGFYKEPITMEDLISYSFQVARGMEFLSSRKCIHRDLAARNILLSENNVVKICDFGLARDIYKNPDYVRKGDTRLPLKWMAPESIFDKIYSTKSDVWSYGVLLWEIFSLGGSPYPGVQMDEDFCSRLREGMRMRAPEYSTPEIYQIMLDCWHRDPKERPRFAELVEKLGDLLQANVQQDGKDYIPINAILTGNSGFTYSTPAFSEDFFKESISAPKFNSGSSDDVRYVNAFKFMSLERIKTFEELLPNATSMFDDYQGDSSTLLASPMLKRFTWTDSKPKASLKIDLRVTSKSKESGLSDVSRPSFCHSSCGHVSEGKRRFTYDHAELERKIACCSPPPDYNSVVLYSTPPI

[5] = target: T3, KDR (VEGFR2) on the surface of PAE-KDR cells (human, UniProt P35968 20-1356); experiment: inhibition of [125I]VEGF binding to PAE-KDR cells by pretreatment with TIMP3
T3 construct: whole, on cells; also called KDR-vector
T3 sequence (P35968 20-1356): as the sequence (P35968 20-1356) above

[6] = target: T4, soluble KDR-IgG (receptor IgG chimeric protein) (UniProt P35968 20-764, limits assumed); experiment: solid-phase assay: displacement of [125I]VEGF165 from soluble KDR-IgG by TIMP3
T4 construct: Bought from R&D Systems; also called KDR-Fc; sKDR; not shown: IgG Fc portion
T4 sequence (P35968 20-764 limits assumed, change not shown): as the sequence (P35968 20-764 limits assumed) above
Experimental: Soluble KDR-Fc or FLT1-Fc (50 ng) was added to each well. […] After washing, the bound protein was solubilized with 1% SDS and 1 M NaOH and radioactivity measured in a γ-counter.

MS1 endothelial cells = experiment: 125I-VEGF165 binding to adenovirus-infected MS1 endothelial cells; design: species or system mouse; conditions: cells infected with adenovirus expressing TIMP3Cys1-Ser
Experimental: Radioligand binding is expressed as percent binding and is the mean±s.e.m. of triplicate samples. […] All values are expressed as mean±s.e.m. of triplicate samples. […] Binding is expressed as mean±s.e.m. Data is shown as percent binding of triplicate samples, with binding to PAE-KDR cells in the absence of any inhibitor as 100%. *, P<0.01. […] P<0.01.
(§2) MS1 mouse endothelial cells\(American Type Culture Collection, Manassas, Va.) were cultured until 80% confluent and infected with adenovirus as described. Cells were infected at 50 or 200 plaque-forming units per cell for 18 h. Medium was then replaced with fresh complete medium and left for 48 h until analysis.

[7] = test system: MS1 mouse endothelial cells; experiment: MS1 endothelial cells infected with adenovirus expressing WT-TIMP3 or TIMP3Cys1-Ser: apoptosis and [3H]thymidine incorporation; assay type: cell-based
Experimental: as §2, §1

MMPs = experiment: Reverse zymography of ECM extracts (MMP-inhibitory activity); assay type: biochemical; conditions: MS1 cells infected with Rad-TIMP3Cys1-Ser vs wild-type
Experimental: Conditioned medium, cell lysates and ECM fractions from transfected cells were prepared. Equal amounts of protein were loaded onto a 12% gel with 1 mg/ml gelatin plus RPE cell-conditioned medium, as a source of MMPs, for reverse zymography and processed as described.

recombinant human TIMP2 = target: T5, recombinant human TIMP2 (human, UniProt P16035 27-220); experiment: solid-phase binding of [125I]VEGF to wells coated with TIMP2
T5 construct: also called rTIMP2

recombinant human TIMP1 = target: T6, recombinant human TIMP1 (human, UniProt P01033 24-207); experiment: solid-phase binding of [125I]VEGF to wells coated with TIMP1
T6 construct: also called rTIMP1
T6 sequence (P01033 24-207 limits assumed): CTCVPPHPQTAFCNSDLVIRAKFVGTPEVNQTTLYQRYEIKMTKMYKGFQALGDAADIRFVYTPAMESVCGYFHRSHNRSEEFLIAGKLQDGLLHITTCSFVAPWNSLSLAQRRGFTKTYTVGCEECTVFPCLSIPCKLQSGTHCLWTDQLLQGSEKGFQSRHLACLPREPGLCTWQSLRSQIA

[8] = target: B2; experiment: solid-phase binding of [125I]VEGF to wells coated with TIMP3

O=C(NO)[C@@H](Cc1ccccc1)NS(=O)(=O)c1ccc(-c2ccccc2)cc1 [MMP-2 and MMP-9 inhibitor, (2R)-[(4-biphenylylsulfonyl)amino]-N-hydroxy-3-phenylpropionamide]
inhibition of binding of VEGF to PAE-KDR cells (KDR): could not inhibit binding of VEGF

GYCSWYRGWAPPDKSIINATDP (listed as Homo sapiens) [tail peptide, synthetic peptide from the tail portion of the C-terminal region of TIMP-3]
inhibition of VEGF binding to KDR at lower doses, comparison of peptides (KDR (VEGFR2); 0.03 μM and 0.1 μM): inhibited VEGF binding better than the Loop 6 peptide and the Loop 5 peptide
inhibition of VEGF binding to KDR (KDR (VEGFR2); 3 μM): inhibit VEGF binding
inhibition of VEGF binding to KDR compared with recombinant TIMP-3 (KDR (VEGFR2); 3 μM): same levels as recombinant TIMP-3
inhibition of CNV (fluorescein dextran, whole mount retina) [1]: inhibit CNV

KNECLWTDMLSNFGYPGYQSKHYACIRQKG (listed as Homo sapiens) [loop 6 peptide, synthetic peptide from loop-6 of the C-terminal region of TIMP-3]
inhibition of VEGF binding to KDR (KDR (VEGFR2); 3 μM): inhibit VEGF binding
inhibition of CNV (fluorescein dextran, whole mount retina) [1]: inhibit CNV

TIMP1: recombinant human TIMP1 expressed in NSO myeloma cells [reference compound]
angiogenic index (tertiary branchpoints of capillaries) ([2]; VEGF plus inhibitor): 172±8
inhibition of endothelial cell migration toward VEGF (PAE-KDR cells): not observed
inhibition of binding of VEGF to PAE-KDR cells (KDR): could not inhibit the binding of VEGF to KDR
direct binding of [125I]VEGF to coated TIMP (VEGF): did not detect direct binding

VEGF [reference compound]
angiogenic index (tertiary branchpoints of capillaries) ([2]; VEGF alone): 190±5
VEGF concentration of maximum migratory effect (PAEKDR cells [3]): 50 ng/mL
VEGF concentration of maximum proliferative activity (PAEKDR cells [4]): 15 ng/mL
inhibition of binding of labeled TIMP3 to the surface of endothelial cells (endothelial cells): could inhibit the binding of labeled TIMP3
Kd (VEGFR1 (FLT-1)): 0.015 to 0.1 nM

B1: C-terminal TIMP3: chimera of residues 1-126 of TIMP-2 and residues 122-188 of TIMP3 representing the isolated C-terminal domain of TIMP3 (protein, listed as Homo sapiens)
chain: CSCSPVHPQQAFCNADVVIRAKAVSEKEVDSGNDIYGNPIKRIQYEIKQIKMFKGPEKDIEFIYTAPSSAVCGVSLDVGGKKEYLIAGKAEGDGKMHITLCDFIVPWDTLSTTQKKSLNHRYQMGCCKIKSCYYLPCFVTSKNECLWTDMLSNFGYPGYQSKHYACIRQKGGYCSWYRGWAPPDKSIINATDP
inhibition of VEGF binding to KDR by TIMP3 domains (KDR (VEGFR2); preliminary studies): inhibits binding of VEGF to KDR

B2
IC50 [5]: 3.3 to 4.5 µg/mL
IC50 [6]: 2.9 µg/mL

B3: TIMP3Cys1-Ser: recombinant TIMP3 protein with reduced metalloproteinase-inhibitory activity, expressed from adenovirus Rad66 (protein)
chain: STCSPSHPQDAFCNSDIVIRAKVVGKKLVKEGPFGTLVYTIKQMKMYRGFTKMPHVQYIHTEASESLCGLKLEVNKYQYLLTGRVYDGKMYTGLCNFVERWDQLTLSQRKGLNYRYHLGCNCKIKSCYYLPCFVTSKNECLWTDMLSNFGYPGYQSKHYACIRQKGGYCSWYRGWAPPDKSIINATDP
binding of VEGF to cell surfaces (MS1 endothelial cells): reduced binding of VEGF to its cell surfaces
apoptosis after adenovirus infection ([7]; MS1 cells infected with wild-type or mutant virus): No apoptosis was observed
proliferative response to VEGF ([3H]thymidine incorporation) ([7]; cells infected with Rad-TIMP3Cys1-Ser): still inhibited in their proliferative response to VEGF
metalloproteinase-inhibitory activity (reverse zymography of ECM extracts) (MMPs): reduced metalloproteinase-inhibitory activity

B4: recombinant human VEGF165 (ligand, UniProt P15692-4 27-191, looked up)
chain: APMAEGGGQNHHEVVKFMDVYQRSYCHPIETLVDIFQEYPDEIEYIFKPSCVPLMRCGGCCNDEGLECVPTEESNITMQIMRIKPHQGQHIGEMSFLQHNKCECRPKKDRARQENPCGPCSERRKHLFVQDPQTCKCSCKNTDSRCKARQLELNERTCRCDKPRR
binding result (recombinant human TIMP2): no binding
binding result (recombinant human TIMP1): no binding
binding result [8]: no binding
